The values that follow come from patent US20250127938A1, “THERAGNOSTIC FOLATE CONJUGATES” (Merck Patent GmbH, priority 2022, published 2025).

Molecules are shown by their SMILES. Bounds are passed on as bounds.

The target in data set [1] is folate receptor-alpha (FR) (Homo sapiens, UniProt P15328). The note with it: background statement; cited from earlier work.
The subject of the next data set is T1, human albumin.
T1 construct: tissue Stiftung Blutspende SRK Aargau-Solothurn, Switzerland; host or cells: human blood plasma
The data set can be described thus: in vitro. Type of data set: in vitro ADME. The note with it: plasma. The method, then:
(§1) Albumin-binding properties were determined in mouse and human blood plasma. The albumin-binding properties of the folate radioconjugates of the disclosure in mouse blood plasma (Rockland Immunochemicals, Inc., USA) and human blood plasma (Stiftung Blutspende SRK Aargau-Solothurn, Switzerland) were determined using an ultrafiltration method (Deberle, L. M. et al., Molecules 2020, 25, (11)). The amount of serum albumin in mouse (MSA) and human (HSA) blood plasma was defined as 550 μM and 800 μM, respectively, based on measurements using a dry chemistry analyzer (DRI-CHEM 4000i, FUJIFILM, Japan). The folate radioconjugates of the disclosure (50 MBq/nmol, ca. 300 kBq, 0.006 nmol in 15 μL) were added to samples of mouse and human blood plasma (150 μL), followed by incubation of the samples at 37° C. for 30 min. The samples were loaded on Amicon centrifugal filters (cut-off of 10 kDa; Merck Millipore) followed by centrifugation (14,000 rcf, 30 min, 4° C.) to allow the separation of the plasma-bound from the plasma-unbound (free) fractions of each sample. The inserts of the filter devices were inverted and centrifuged at 200 rcf for 3 min to recover the protein-bound fraction. The activity of the protein-bound fraction as well as the activity in the filtrate and in the filter unit were measured separately in a gamma-counter (Perkin Elmer, Wallac Wizard 1480). The percentage of radioconjugate bound to mouse and human albumin, respectively, was set in relation to the total activity measured (Table 4).

A further data set relates to T2, mouse albumin.
T2 construct: tissue Rockland Immunochemicals, Inc., USA; host or cells: mouse blood plasma
The data set is described as follows: in vitro. The conditions noted are these: plasma. It counts as in vitro ADME. The method, then:
as §1

Data set [2] is classed as physicochemical. The conditions noted are these: pH 7.4. As for the experimental part: The n-octanol/PBS distribution coefficients (log D values) were determined for each folate radioconjugate of the disclosure in order to assess their hydrophilic/hydrophobic properties. The log D values of the folate radioconjugates of the disclosure (50 MBq/nmol) were determined as previously reported, after dilution in PBS pH 7.4 to obtain an activity concentration of 10 MBq/500 μL. A sample of each radiofolate (ca. 0.5 MBq, 25 μL, 0.01 nmol) was added to a mixture of 1475 μL PBS pH 7.4 and 1500 μL n-octanol. The vials were vortexed vigorously for 1 min followed by centrifugation for 6 min at 2500 rpm for phase separation. An aliquot was taken from each phase and measured in a gamma-counter (Perkin Elmer, Wallac Wizard 1480). The distribution coefficients were calculated as the logarithm of the ratio of counts per minute (cpm) measured in the n-octanol phase relative to the cpm measured in the PBS phase. The results were listed as mean±SD of the data obtained from 3 independent experiments, each performed with five replicates.

Data set [3] is described as follows: Radiolytic stability of the radioconjugates (HPLC). Type of data set: physicochemical. The conditions noted are these: room temperature, PBS pH 7.4, 100 MBq/500 μL, relative to value at t0. The method, then:
Radiolytic stability: After performing quality control of the radioconjugates (50 MBq/nmol) using HPLC (t0=0 h), the radioconjugates were diluted in PBS pH 7.4 to obtain an activity concentration of 100 MBq/500 μL. The radioconjugate dilutions were incubated at room temperature. The integrity of the radioconjugates was assessed after a 4 h and 24 h, respectively, using HPLC. The HPLC chromatograms were analyzed by determination of the peak area of the radiolabeled product, the released lutetium-177 as well as the degradation products of unknown structure. The quantity of the intact product was expressed as the percentage of the sum of integrated peak areas of the entire chromatogram and set into relation to the original value determined at to (radiochemical purity >95% set as 100%).

In data set [4] the target is T3, FR (folate receptor) on IGROV-1 cells (Homo sapiens, UniProt P15328).
T3 construct: FR-positive IGROV-1 cells (human ovarian carcinoma cell line); endogenous in cells; host or cells: IGROV-1 human ovarian carcinoma cells (provided by Dr. Gerrit Janssen, Free University Medical Center Amsterdam)
T3 sequence (P15328 25-234): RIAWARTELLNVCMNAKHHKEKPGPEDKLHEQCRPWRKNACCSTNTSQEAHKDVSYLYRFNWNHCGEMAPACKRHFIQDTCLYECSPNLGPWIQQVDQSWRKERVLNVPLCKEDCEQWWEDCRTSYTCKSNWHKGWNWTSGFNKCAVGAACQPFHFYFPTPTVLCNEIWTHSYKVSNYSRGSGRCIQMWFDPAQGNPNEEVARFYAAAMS
The data set is described as follows: FR-binding affinity (KD) on FR-positive IGROV-1 cells. The note with it: 1 h at 4° C., average of 3 experiments. As for the experimental part: The determination of the KD values was performed as previously reported (Deberle, L. M. et al; Bioconj Chem 2021, 32, p. 1617). FR-positive IGROV-1 cells (human ovarian carcinoma cell line, kindly provided by Dr. […] Janssen, Free University Medical Center Amsterdam, The Netherlands) were seeded in 48-well plates (2.5×10^5 cells/well) in 500 μL FFRPMI medium with supplements. The cells were incubated at 37° C. and 5% CO2 to allow cell adhesion overnight. The experiment was performed on ice using ice-cold medium and buffer solutions. After removal of the supernatant, the cells were rinsed once with PBS prior to the addition of FFRPMI medium without supplements (450 μL/well). The respective folate radioconjugate of the disclosure (20 MBq/nmol) was added to each well at variable concentrations (in the range of 0.1 to 500 nM, 50 μL per well). […] The IGROV-1 tumor cells were incubated for 1 h at 4° C. on a shaker, followed by removal of the supernatants and rinsing the cells twice with PBS. After lysis of the cells with NaOH solution (1 M, aq., 500 μL), the samples were counted for activity in a γ-counter (Wallac Wizard 1480, Perkin Elmer). The counts per minute (cpm) of the specific binding (determined by subtracting the cpm of the unspecific binding from the cpm of total binding), were plotted against the molar concentration of the added folate radioconjugates of the disclosure. […]

folate receptor-alpha (FR), sequence (P15328 25-234, species assumed): as the sequence (P15328 25-234) above

Regarding `CN1c2c(nc(N)[nH]c2=O)NCC1CNc1ccc(C(=O)N[C@@H](CCC(=O)O)C(=O)O)cc1` (stereo partly shown) [5-methyltetrahydrofolic acid], the “FR affinity (KD)” value in data set [1] is “nanomolar range”.
On to `CN1c2c(nc(N)[nH]c2=O)NC[C@H]1CNc1ccc(C(=O)N[C@@H](CCC(=O)N[C@@H](CCCCNC(=O)CN2CCN(CC(=O)O)CCN(CC(=O)O)CCN(CC(=O)O)CC2)C(=O)N[C@@H](CCCCNC(=O)CCCCc2ccc(I)cc2)C(=O)O)C(=O)O)cc1` [[^177Lu]Lu-6R-RedFol-24, metal not drawn], for which the values for the fraction unbound at 30 min, 0.036 µM in the data set on human albumin and in the data set on mouse albumin were 0.06 and 0.27, respectively. The logD in data set [2] is -3.5 ± 0.2. Moreover, the “Intact radiolabeled product [%]” value in data set [3] (4 h) and in data set [3] (24 h) was at least 99% each time. In data set [4], the affinity, expressed as Kd, was 5.6 nM.
Regarding `CN1c2c(nc(N)[nH]c2=O)NC[C@@H]1CNc1ccc(C(=O)N[C@@H](CCC(=O)N[C@@H](CCCCNC(=O)CN2CCN(CC(=O)O)CCN(CC(=O)O)CCN(CC(=O)O)CC2)C(=O)N[C@@H](CCCCNC(=O)CCCCc2ccc(I)cc2)C(=O)O)C(=O)O)cc1` [[^177Lu]Lu-6S-RedFol-24, metal not drawn], the fraction unbound at 30 min, 0.036 µM with human albumin is 0.14; in the data set on mouse albumin it was 0.26. This molecule came in with a logD in data set [2] of -3.1 ± 0.1. Also, the “Intact radiolabeled product [%]” value in data set [3] (4 h) and in data set [3] (24 h) was at least 99% each time. In data set [4], the dissociation constant Kd turned out to be 4.6 nM.

What is called fraction unbound is the share of the substance not bound to proteins or other matrix. Broadly, the logD is lipophilicity at a set pH, counting ionised and neutral species. A high value points to higher lipophilicity. A word on the Kd: it is a measure of binding affinity in units of concentration. Low readings indicate a tighter complex, high ones a looser complex.
